Patent US20230115257A1 (CURIA IP, published 2023)
Substitutions are numbered along the chain they refer to.

Key:
[1] = molecular target: T1, SARS-CoV-2 B.1.1.529 spike trimer variant (SARS-CoV-2 B.1.1.529 (Omicron), UniProt P0DTC2 16-1213); experiment: Table A: binding pattern against variant spike proteins
T1 construct: also called omicron; Omicron B.1.1.529

[2] = molecular target: T2, SARS-CoV-2 (WIV02 isolate) prefusion stabilized spike trimer protein (SARS-CoV-2 (WIV02 isolate), UniProt P0DTC2 14-1213); experiment: as above
T2 construct: also called WT; SARS-CoV-2 spike trimer

[3] = molecular target: T3, SARS-CoV-2 BA.2 spike trimer variant (SARS-CoV-2 Omicron BA.2, UniProt P0DTC2 16-1213); experiment: as above
T3 construct: also called Omicron BA.2

[4] = molecular target: T4, SARS-CoV-2 B.1.617.2 spike trimer variant (SARS-CoV-2 B.1.617.2 (Delta), UniProt P0DTC2 16-1213); experiment: as above
T4 construct: also called delta; SARS-CoV-2 Delta Spike

[5] = molecular target: T5, SARS-CoV-2 P.1 spike protein (SARS-CoV-2 P.1 (Gamma), UniProt P0DTC2 13-1213); experiment: as above
T5 construct: also called gamma; SARS-CoV-2 P.1 spike trimer variant

[6] = molecular target: T6, SARS-CoV-2 B.1.1.7 spike protein (SARS-CoV-2 B.1.1.7 (Alpha), UniProt P0DTC2 13-1213); experiment: as above
T6 construct: also called alpha; SARS-CoV-2 B.1.1.7 spike trimer variant

[7] = molecular target: T7, SARS-CoV-2 Beta (B.1.351) variant prefusion stabilized spike trimer protein (SARS-CoV-2 Beta (B.1.351), UniProt P0DTC2 14-1213); experiment: Table A (reprint): binding pattern against variant spike proteins
T7 construct: also called SARS-CoV-2 B.1.351 spike protein; β spike

[8] = molecular target: T7, SARS-CoV-2 Beta (B.1.351) variant …; experiment: ELISA screens of hybridomas on WT, Alpha, Beta and Gamma spike

B1: 9-M12-A (antibody, V domains shown)
VH: EVQLVESGGDLVKPGGSLKLSCTASGFTFSSYGMSWVRQTPDKRLEWVTTISSGGGYTYVPDSVKGRFTISRDNAKNTLYLHMSSLKSEDTAMYFCARPLIPTMVEAFDYWGQGTSLTVSS
VL: SIVMTQTPKFLPVSAGDRVTMTCKASQSVGNNVAWYQQKPGQSPKLLIYYASNRYTGVPDRFTGSGSGADFTFTISSVQVEDLAVYFCQQHYSSPFTFGTGTKLEIK
Does B1 bind [1]?
Result: no binding

Does B1 bind [2]?
Result: no binding

Does B1 bind [3]?
Result: no binding

Does B1 bind [4]?
Result: no binding

Does B1 bind [5]?
Result: no binding

Does B1 bind [6]?
Result: no binding

B2: 3-P17-A (antibody, V domains shown)
VH: QVQLKQSGPGLVQPSQSLSITCTVSGFSLTSYGVHWVRQSPGKGLEWLGVIWSGGITDYNAGFISRLSISKDNSKSQVFFTMNSLQADDTAIYYCARIITTVLDQFADWGQGTLVTVSA
VL: DIVLTQSPASLAVSLGQRATISCRASQSVSTSTYSYIHWYQQKPGQPPKLLIKYASNLESGVPARFSGSGSGTDFTLNIHPVEEEDTATYYCQHSWEIPPTFGAGTKLELK
Does B2 bind [7]?
Result: binds

Does B2 bind [1]?
Result: no binding

Does B2 bind [2]?
Result: no binding

Does B2 bind [3]?
Result: no binding

Does B2 bind [4]?
Result: no binding

Does B2 bind [5]?
Result: no binding

Does B2 bind [6]?
Result: no binding

B3: 3-K11-A (antibody, V domains shown)
VH: EVQLQQSGPELVKPGASVKMSCKASGYTFTSYVMHWVKQKPGQGLEWIGYINPYNDGTEYNEKFKGKATLTSDKSSSTAYMELSSLTSEDSAVYHCAREAYRYFDVWGTGTTVTVSS
VL: DIQMTQSPASLSVSVGETVTITCRASENIYSNLAWYQQKQGKYPQLLVYGATNLADGVPSRFSGSGSGTQYFLKINSLQSEDFGSYYCQHFWGIPWTFGGGTKLEIK
Does B3 bind [2]?
Result: no binding

Does B3 bind [3]?
Result: no binding

Does B3 bind [4]?
Result: no binding

Does B3 bind [5]?
Result: no binding

Does B3 bind [6]?
Result: no binding

B4: 4-O14-B (antibody, V domains shown)
VH: QVQLQQPGAELVKPGASVKLSCKASGYAFISHWMHWVRQRPGRGLEWIGRIDPNSSGSKDNEKFRSKATLTVDKPSSTAYMQLSSLTSEDSAVYYCARSPYYSNPYWYFDVWGAGTTVTVSS
VL: EIVLTQSPALMAASPGEKVTITCSVSSSISSSNLHWYQQKSETSPKPWIYGTSNLASGVPVRFSGSGSGTSYSLTITNMEAEDAATYYCQQWSSYPFTFGSGTKLEIK
Does B4 bind [8]?
Result: binds

B5: 9-G24-A (antibody, V domains shown)
VH: QVQLQQSGAELVRPGASVKLSCKASGYTFTDYEMHWVKQTPVHGLEWIGVIDPETGDTAYNQKFKDKATLTADKSSSTAYMELRSLTSEDSAVYYCARRRDYGNPYWYFDVWGAGTAVTVSS
VL: B4 VL with V25A, E42G, T77S, N78S, Y88V, S94N, F97Y
Does B5 bind [1]?
Result: no binding

Does B5 bind [2]?
Result: no binding

Does B5 bind [3]?
Result: no binding

Does B5 bind [4]?
Result: no binding

Does B5 bind [5]?
Result: no binding

Does B5 bind [6]?
Result: no binding
